In US12559863B2, “Macrocyclic modulators of disease associated protein misfolding and aggregation” (RESQ BIOTECH, priority 2017, dated 2026):

Biological target: T1, Aβ42-GFP (Homo sapiens, UniProt P05067)
T1 construct: a chimeric fusion of the human Aβ(1-42) peptide (Aβ42) with GFP; expressed in transfected cells; host or cells: E. coli BL21(DE3)
Assay: High-throughput sequencing of pSICLOPPS vectors isolated after bacterial sorting for enhanced Aβ42-GFP fluorescence
Conditions: for Reads/Total TXXXR reads (%) / Reads/Total pentapeptide reads (%) / Reads/Total peptide reads (%): after the second round of bacterial sorting; for Reads/Total TXXXR reads (%): relative to total TXXXR reads; for Reads/Total pentapeptide reads (%): relative to total pentapeptide reads; for Reads/Total peptide reads (%): relative to total peptide reads; for Number of reads: high-throughput sequencing of isolated pSICLOPPS-NuX1X2X3-X5 vectors after the second round of bacterial sorting for enhanced Aβ42-GFP fluorescence, selected cyclo-TXXXR pentapeptides
Description: On the other hand, very few bioactive sequences resembling AβC5-34 should exist. […] The peptide-encoding vectors contained in these clones were isolated and the peptide-encoding region of approximately 5.6 million of these plasmids was sequenced using an Ion Torrent high-throughput sequencing platform. […] First, pentapeptides were the dominant peptide species within the sorted pool (FIG. 12D), in agreement with previous observations (FIG. 8G). Second, the most prevalent motif among the selected pentapeptide sequences were TXXXR pentapeptides (˜47% of the selected pentapeptide-encoding pSICLOPPS plasmids; ˜42% of the unique selected pentapeptide sequences) (Table 1), in accordance with previous observations (FIG. 8G). […] At position 2, Thr, Ala, and Val were preferred, while aromatic residues (Phe, Trp, Tyr) were completely excluded from the selected TXXXR peptide pool, in full agreement with our site-directed mutagenesis studies. At the highly variable position 3, the complete absence of the negatively charged amino acids Glu and Asp among the selected sequences was notable (FIG. 12E). […] It is noteworthy, that Lys and Gln residues were practically absent from all positions, while the β sheet-breaking amino acid Pro that is typically included in designed peptide-based inhibitors of amyloid aggregation appeared with strikingly low frequencies (FIG. 12E).
Electrocompetent E. coli BL21(DE3) cells (Novagen, USA) carrying either the expression vector pETSOD1(A4V)-GFP, which produces SOD1(A4V)-GFP under control of the strong bacteriophage T7 promoter, or pETAβ42-GFP, which produces Aβ42-GFP under control of the T7 promoter, were co-transformed with the combined pSICLOPPS-NuX1X2X3-X5 vector library. Approximately 10^8 transformants carrying both the vector library and either pETSOD1(A4V)-GFP or pETAβ42-GFP vectors were harvested, pooled together, and grown in Luria-Bertani (LB) liquid medium containing either 0.005% (pETSOD1(A4F)-GFP) or 0.002% (pETAβ42-GFP) L-arabinose—the inducer of cyclic peptide production—at 37° C. with shaking. When the optical density at 600 nm (OD600) of the bacterial culture was about 0.5, 0.01 (pETSOD1(A4F)-GFP) or 0.1 (pETAβ42-GFP) mM isopropyl-β-D-thiogalactoside (IPTG) was added to the medium to induce overexpression of the reporter. […] The isolated cells were re-grown and screened for additional rounds in an identical manner until the desired enrichment in high-fluorescence clones was achieved.
For the characterization of the initial libraries, a combined pSICLOPPS-NuX1X2X3-X5 vector library was prepared containing approximately equal amounts of each one of the tetra-, penta- and hexapeptide sub-libraries. These samples were digested with NcoI and BsrGI and the resulting ˜250 bp product that contained the variable peptide-encoding region was isolated. High-throughput sequencing analysis was performed using an Ion Torrent high-throughput sequencing platform. From the obtained data, all the sequences with mismatches outside of the variable peptide-encoding region were removed, and only the 12-, 15- or 18-bp-long peptide-encoding sequences were subjected to further analysis. The libraries of the selected cyclic peptides that enhance either SOD1(A4V)-GFP or Aβ42-GFP fluorescence were sequenced in a similar manner, with the only exception being that all sequences including stop codons were discarded from subsequent analysis.

Substance	Reads/Total TXXXR reads (%)	Reads/Total pentapeptide reads (%)	Reads/Total peptide reads (%)	Number of reads
AβC5-2 (TTYAR; cyclic)	16.023	7.506	6.727	304,753
AβC5-3 (TTVDR; cyclic)	11.276	5.282	4.734	214,461
AβC5-5 (TTTWR; cyclic pentapeptide)	9.228	4.323	3.874	175,510
AβC5-7 (TTLHR; cyclic pentapeptide)	7.046	3.301	2.958	134,018
AβC5-12 (TTWAR; cyclic)	3.466	1.624	1.455	65,929
AβC5-13 (TALDR; cyclic)	3.301	1.547	1.386	62,792
AβC5-15 (TANVR; cyclic)	2.516	1.179	1.056	47,855
AβC5-17 (TTTAR; cyclic)	2.110	0.989	0.886	40,135
AβC5-18 (TTIAR; cyclic)	1.953	0.915	0.820	37,150
AβC5-20 (TTISR; cyclic)	1.948	0.912	0.818	37,044
AβC5-21 (TTWCR; cyclic)	1.908	0.894	0.801	36,295
AβC5-22 (TVLWR; cyclic)	1.883	0.882	0.791	35,820
AβC5-26 (TAWCR; cyclic)	1.493	0.699	0.627	28,391
AβC5-27 (TTSAR; cyclic)	1.482	0.694	0.622	28,188
AβC5-29 (TTLER; cyclic)	1.447	0.678	0.607	27,514
AβC5-30 (TSTAR; cyclic)	1.444	0.676	0.606	27,456
AβC5-35 (TVRDR; head-to-tail cyclic)	1.337	0.626	0.561	25,428
AβC5-41 (TGWAR; head-to-tail cyclic)	1.145	0.537	0.481	21,784
AβC5-44 (TAWAR; cyclic pentapeptide)	1.094	0.512	0.459	20,807
AβC5-45 (TTWVR; cyclic pentapeptide)	1.094	0.512	0.459	20,798

Substance	Reads/Total TXXXR reads (%)	Reads/Total pentapeptide reads (%)	Reads/Total peptide reads (%)	Number of reads
AβC5-46 (TLLWR; cyclic pentapeptide)	1.049	0.492	0.440	19,957
AβC5-47 (TTIDR; cyclic pentapeptide)	1.038	0.486	0.436	19,735
AβC5-50 (TALAR; cyclic pentapeptide)	1.022	0.479	0.429	19,433
AβC5-51 (TSVDR; cyclic pentapeptide)	1.012	0.474	0.425	19,249
AβC5-53 (TTVWR; cyclic pentapeptide)	0.982	0.460	0.412	18,669
AβC5-66 (TTHWR; cyclic pentapeptide)	0.752	0.352	0.316	14,304
AβC5-67 (TARDR; cyclic pentapeptide)	0.747	0.350	0.314	14,213
AβC5-73 (TTRDR; cyclic pentapeptide)	0.678	0.318	0.285	12,894
AβC5-80 (TSVHR; cyclic)	0.535	0.251	0.225	10,181
AβC5-89 (TATDR; cyclic)	0.420	0.197	0.176	7,984
AβC5-94 (TVLFR; cyclic)	0.391	0.183	0.164	7,442
AβC5-102 (TTYNR; cyclic)	0.319	0.149	0.134	6,067
AβC5-105 (TVRWR; cyclic)	0.287	0.134	0.120	5,450
AβC5-117 (TTRCR; cyclic)	0.223	0.104	0.094	4,237
AβC5-118 (TTFWR; cyclic)	0.222	0.104	0.093	4,216
AβC5-121 (TIKDR; cyclic)	0.209	0.098	0.088	3,970
AβC5-123 (TTVHR; cyclic)	0.177	0.083	0.074	3,371
AβC5-126 (TTLLR; cyclic)	0.159	0.074	0.067	3,016
AβC5-129 (TTLFR; cyclic)	0.138	0.065	0.058	2,630
